This note sets out measurements from US20250282869A1 (Amgen, published 2025).

For assay [1], the target named is T1, human delta-like ligand 3 (DLL3) (human, UniProt Q9NYJ7 27-618).
T1 construct: whole, on cells; also called Human DLL3; huDLL3
T1 sequence (looked up): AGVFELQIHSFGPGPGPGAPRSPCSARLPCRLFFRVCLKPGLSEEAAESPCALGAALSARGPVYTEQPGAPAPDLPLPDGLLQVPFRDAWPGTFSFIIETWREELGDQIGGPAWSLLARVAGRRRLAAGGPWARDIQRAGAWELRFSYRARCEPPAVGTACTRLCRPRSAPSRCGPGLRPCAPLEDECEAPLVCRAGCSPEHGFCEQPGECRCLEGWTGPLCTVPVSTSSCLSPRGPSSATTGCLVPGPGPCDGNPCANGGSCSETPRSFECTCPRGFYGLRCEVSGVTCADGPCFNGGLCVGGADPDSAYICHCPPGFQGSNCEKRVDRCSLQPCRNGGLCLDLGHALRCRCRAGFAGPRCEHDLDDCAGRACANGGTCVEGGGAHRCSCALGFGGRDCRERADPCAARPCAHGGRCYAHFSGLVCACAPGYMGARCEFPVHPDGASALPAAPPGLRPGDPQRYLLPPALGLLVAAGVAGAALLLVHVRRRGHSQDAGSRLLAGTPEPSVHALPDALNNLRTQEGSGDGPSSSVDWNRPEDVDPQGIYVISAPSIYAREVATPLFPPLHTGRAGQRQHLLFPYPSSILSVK
Description: flow cytometry, on-cell binding to CHO cells stably expressing human DLL3, anti-Fc detection. The protocol:
(§1) In particular, on-cell binding affinity for DLL3 was evaluated using Chinese Hamster Ovary (CHO) cells engineered to stably express either human or cynomolgus monkey DLL3. The engineered CHO cells were incubated with DLL3 multichain TCE proteins comprising two different DLL3-binders (“DLL3_1” or “DLL3_2”) for 4 hours at 4° C. in buffer (phosphate buffered saline with 1% fetal bovine serum). After incubation, the cells were washed in buffer, and then bound DLL3 multichain proteins were detected by incubation with a fluorescently labeled antibody directed to the fragment crystallizable (Fc) region of the proteins. Bound proteins were analyzed by flow cytometry and the EC50 values were calculated from non-linear regression analysis using GraphPad Prism.
(In general: Flow cytometry measures light scatter and fluorescence of single cells or particles in a stream.)

For assay [2], the target named is T2, CD3ε (aa 1-27)-chicken albumin fusion protein, human (human; chicken, UniProt P07766 22-48).
T2 construct: range 1-27; Immobilized on CM5 sensor chips; The order of the parts follows the printed name; also called Human CD3; CD3E fusion protein; not shown: chicken albumin
T2 sequence (P07766 22-48 limits assumed): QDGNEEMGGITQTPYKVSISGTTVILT
Description: SPR, CD3ε (aa 1-27)-chicken albumin immobilized on CM5 chip, construct in solution. How it is done: CD3 binding affinity was evaluated using surface plasmon resonance. A CD3E fusion protein (CD3ε (aa 1-27)-chicken albumin) was immobilized on CM5 Sensor Chips in the presence of a sodium acetate buffer (pH 4.5). The DLL3 multichain TCE proteins described above diluted in HBS-EP buffer were applied at different concentrations to determine the molecule association rates with CD3ε. HBP-EP buffer alone was then added to allow analysis of the molecule dissociation rates.
(In general: Surface plasmon resonance follows binding to a sensor surface in real time, without labels.)

The target in assay [3] is T3, cynomolgus monkey DLL3 (cynomolgus monkey, UniProt A0A2K5WSR1 27-584).
T3 construct: whole, on cells; also called cyno DLL3
T3 sequence: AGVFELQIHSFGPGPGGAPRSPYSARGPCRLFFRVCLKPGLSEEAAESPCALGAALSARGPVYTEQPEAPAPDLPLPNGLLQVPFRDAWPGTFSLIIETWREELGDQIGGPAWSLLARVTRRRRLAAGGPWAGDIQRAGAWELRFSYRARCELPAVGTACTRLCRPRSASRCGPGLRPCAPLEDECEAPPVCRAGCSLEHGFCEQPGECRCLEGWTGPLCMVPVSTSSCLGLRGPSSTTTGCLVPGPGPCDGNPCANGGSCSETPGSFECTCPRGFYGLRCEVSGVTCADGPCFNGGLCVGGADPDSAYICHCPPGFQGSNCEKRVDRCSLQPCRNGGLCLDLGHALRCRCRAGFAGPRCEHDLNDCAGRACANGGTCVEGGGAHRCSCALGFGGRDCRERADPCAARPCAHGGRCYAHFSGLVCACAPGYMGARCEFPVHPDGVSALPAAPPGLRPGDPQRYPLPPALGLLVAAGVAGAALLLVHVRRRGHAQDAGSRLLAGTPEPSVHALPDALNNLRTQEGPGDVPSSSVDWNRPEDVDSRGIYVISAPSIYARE
Nature of the assay: flow cytometry, on-cell binding to CHO cells stably expressing cynomolgus monkey DLL3, anti-Fc detection. The protocol:
as §1

The target of assay [4] is T1, human delta-like ligand 3 (DLL3). Nature of the assay: cell-based or functional assay.
Assay [5] concerns the target T3, cynomolgus monkey DLL3. Description: cell-based or functional assay.

B1: DLL3_2 hetero IgG (SEFL2)(YTE) (bispecific antibody)
heavy 1: not shown
light 1: DIVMTQTPLSLSVTPGQPASISCKSSQSLLHSDGKTFLYWYLQKPGQPPQLLIYEVSNRFSGVPDRFSGSGSGTDFTLKISRVEAEDVGVYYCLQGIHLPFTFGPGTKVEIKRTVAAPSVFIFPPSDEQLKSGTASVVCLLNNFYPREAKVQWKVDNALQSGNSQESVTEQDSKDSTYSLESTLTLSKADYEKHKVYACEVTHQGLSSPVTKSFNRGEC
heavy 2: EVQLVESGGGLVQPGGSLKLSCAASGFTFNKYAINWVRQAPGKGLEWVARIRSKYNNYATYYADAVKDRFTISRDDSKNTVYLQMNNLKTEDTAVYYCARAENIGTSYISYWAYWGQGTLVTVSSASTKGPSVFPLAPSSKSTSGGTAALGCLVKDYFPEPVTVSWNSGALTSGVHTFPAVLQSSGLYSLESVVTVPSSSLGTQTYICNVNHKPSNTKVDKKVEPKSCDKTHTCPPCPAPELLGGPSVFLFPPKPKDTLYITREPEVTCVVVDVSHEDPEVKFNWYVDGVEVHNAKTKPCEEQYGSTYRCVSVLTVLHQDWLNGKEYKCKVSNKALPAPIEKTISKAKGQPREPQVYTLPPSRKEMTKNQVSLTCLVKGFYPSDIAVEWESNGQPENNYKTTPPVLKSDGSFFLYSKLTVDKSRWQQGNVFSCSVMHEALHNHYTQKSLSLSPGK
light 2: not shown
Usually EC50 stands for the midpoint of the concentration-response curve. What is called Kd is the free concentration of one partner at which half of the binding sites on the other are occupied at equilibrium, for simple one-to-one binding. For B1, the EC50 in assay [1] is 0.035 nM; in assay [3], 0.04 nM. Besides, in assay [2], the Kd came to 7.84 nM. For the same molecule, in assay [4], the “T cell dependent cellular cytotoxicity (TDCC) EC50, CHO-huDLL3” value was 100 pM. Besides, the “T cell dependent cellular cytotoxicity (TDCC) EC50, CHO-cyno DLL3” value in assay [5] amounted to 22.7 pM.
